Target: SARS-CoV-2 S1蛋白 (ACRO Biosystems) (SARS-CoV-2) (UniProt P0DTC2)
Experiment: BLI, biotinylated SARS-CoV-2 S1 on SA sensor, 1:1 fit

“针对SARS-CoV和SARS-CoV-2S1的人源抗体CR3022 (antibody)” showed a Kd of 0.0866 nM, a koff of 1.9e-05 s⁻¹ and a kon of 220000 M⁻¹ s⁻¹.

— patent CN114106161A
